Measurements taken from the DeepSol protein solubility set.

Experiment: soluble on expression in E. coli; label from the status in PepcDB or PDB records

| Sequence | soluble on expression in E. coli |
| --- | --- |
| VSEIKTLVTFFGGTGDLAKRKLYPSVFNLYKKGYLQKHFAIVGTARQALNDDEFKQLVRDSIKDFTDDQAQAEAFIEHFSYRAHDVTDAASYAVLKEAIEEAADKFDIDGNRIFYMSVAPRFFGTIAKYLKSEGLLADTGYNRLMIEKPFGTSYDTAAELQNDLENAFDDNQLFRIDHYLGKEMVQNIAALRFGNPIFDAAWNKDYIKNVQVTLCEVLGVEERAGYYDTAGALLDMIQNHTMQIVGWLAMEKPESFTDKDIRAAKNAAFNALKIYDEAEVNKYFVRAQYGAGDSADFKPYLEELDVPADSKNNTFIAGELQFDLPRWEGVPFYVRSGKRLAAKQTRVDIVFKAGTFNFGSEQEAQEAVLSIIIDPKGAIELKLNAKSVEDAFNTRTIDLGWTVSDEDKKNTPEPYERMIHDTMNGDGSNFADWNGVSIAWKFVDAISAVYTADKAPLETYKSGSMGPEASDKLLAANGDAWVFKG | soluble |
| MTGITVSDSAARRIAKILDSEPGKTALRVSVEGGGCSGFSYKYDLVDAQTEDDIVIEKLGARVLIDSISVPYMDGSEIDFVDDLMGQSFQIRNPNATASCGCGTSFAILEHHHHHH | soluble |
| MNILFAVSECVPFVKSGGLADVAGALPKELKKLGVDVRIILPNYSLIPQKLRDGCTLHKVINVPLGWRNQYCGILKGEQDGITYYLIDNEYYFKRDSLYGHYDDGERFSYFSKAVLECIPHLDFEVDVLHSHDWHTAMVNFLLREKYQDNPLYERIKTVYTIHNLQFQGVFPPEVIYDLLELGDEYFHSEQLEFYGNVNFMKGGIIASDQITAVSPTYKEEIQYEFFGEKLDGLLRKYNDKLSGIVNGIDTSVYNPETDSYIKAQYDAESLYEKSENKRALQRYFGLPEKEDTPIISMVTRLTKQKGLDLVRTVFREIMEEDVQCIILGSGDSEYEQFFEWMAYEYPEKVKVYIGFNEELAHQVYAGSDLFLMPSLFEPCGLGQLIALAYGTIPIVRETGGLNDTVHSYDEETGEGNGFSFTNFNAHDMLHTIHRAIEFYHDKPVWEQLVKQAMTEDYSWEQSALAYKELYKSLME | soluble |
| NDDIIVNWVNETLREAEKSSSISSFKDPKISTSLPVLDLIDAIQPGSINYDLLKTENLNDDEKLNNAKYAISMARKIGARVYALPEDLVEVNPKMVMTVFACLMGKGMKRV | soluble |
| MYAAKGTQAYAQIGVESAVMSASQQQLVTMLFDGVLSALVRASLFMQDNNQQGKGVSLSKAINIIENGLRVSLDEESKDELTQNLIALYSYMVRRLLQANLRNDVSAVEEVEALMRNIADAWKESLLSPSLIQDPV | soluble |
| MIPRPIPEPSPDLYTEEEVSKLVHEFYAKARKDAALGPIFEEHVIDWDAHFVQMTNFWSAQLRGTSRFRGAPMPKHIALPELNETLFKRWLQLFRQTTLELGNPLLKQHADTVAEFIAGRLWMGYQMSHFPHREPADLNTSEV | not soluble |
| MGSDKIHHHHHHMKVKAPGRINIIGEHTDYNDGYVLPFAVNRYVFLSIEGSERFIFHSENVNETVEMEKIEKLNKWTDYISGVIASFEKRGYRVSPVKISVSSNLPIGAGLSSSAALEVATAYAISEYFGFNVPKLELVKIAREAEVEFVGVRCGIMDQFTAVFGKKDHAIFLDTMTLEYEYVPLKLEGYEINLVDSNVKHELSSSEYNRRRQECEEVLKTLEKKSFREVTKEDLERLSGTLRKRAQHVLEENERVLKSVQALKEGDFETLGKLLFSSHESLRDLYEVSCEETDFIVDYLRGKEGILGARMVGGGFGGGVIVLSKKGAFGKIKEELVESYRKRFGIDLIFHEIESSDGVQKI | not soluble |
| MSTVNVQIGLHELLNGSNAQIQLSVPQLVEKVLMRNEGKLTSTGAVSASTGKYTGRSPKDKFIVKEASVADKIAWGAVNQPISEEHFNKLYTKVLEYLKEKEELFVFKGFAGADRNYRLPIQVINEYAWHNLFVHQLFIRPTEEELTTHESEFTIVSAPNFKADPAVDGTNSEAFIMVSFEKRIVLIGGTEYAGEMKKSIFSIMNFLLPEQDILSMHCSANVGEEGDVALFFGLSGTGKTTLSADPNRKLIGDDEHGWSDNGVFNIEGGCYAKCVNLSHEKEPQIFDAITFGSVLENVIINDQTRIADYNDTTLTENTRAAYPMHAIDNIILPSVAGHPNTIIFLTADASGVLPPISKLSKEQAMYHFLSGYTSKLAGTERGVTSPQATFSTCFGSPFLPLDASRYAEMLGEKIEKHDAKVFLVNTGWTGGEYGVGKRMNLGYTRAMIQAALNGELAKTETAKHDIFGLEVPLHVPGVPDEVLMPEQTWADKAAYKAKAIELANEFKANFKKFDSVSEDIINLGGPIA | not soluble |
| MKLTDYVKQVSLEDFGRPFIHHVQWNRRLRSTGGRFFPKDGHLDFNPKVYQELGLDVFRKIVRHELCHYHLYFQGKGYQHKDRDFKELLKAVDGLRFVPSLPNSNSKPIKLYRCQSCQQRYQRKRRIDTQRYRCGLCRGKLLLVNQPEDLEHHHHHH | not soluble |
| MGSDKIHHHHHHMGDLPGLVRLSIALRIQPNDGPVFYKVDGQRFGQNRTIKLLTGSSYKVEVKIKPSTLQVENISIGGVLVPLELKSKEPDGDRVVYTGTYDTEGVTPTKSGERQPIQITMPFTDIGTFETVWQVKFYNYHKRDHCQWGSPFSVIEYECKPNETRSLMWVNKESFL | not soluble |
| MGSDKIHHHHHHMAEQQKTAAATAEAEAIDLGEFSGLLEKDFKVKKDDSEKLQQLVRNLALAAQSRSETTTISSNAIKSIKSLIAGIDKMLTTQVNEILHAPEVREMEGTWRGLWYLINNTETDTKLKIRVMNISKEQLADTLEDYEGQMWDQSPIFKKVYTDEYSMLGGEPIGCIIGAYEFSNHPRDVGLLRNISGVCASAHTPFIAAASPRLFRMDSWQELPNPQDLQMIVNNPAYASWQSLRESEDARYIGLTMPRVLARLPYGSETVPVKGFTFEEEVGGDHNKYVWMNAAFPMGVNINRSHKLYGWGTQIRGVENGGTVLNLPVHAFPTDDGSIAMKCPTEVAIDDRREAELAKLGLMPILHRKNTDLAAFIGAHSLQDDETRAGRLVDPDAQSNERLSANLPYLFPVSRFAHYLKAIARDKIGSFKERTDMEIWLTEWINRYVLANPAFADDKARAKRPLAAAEVQVDSVEGRPGYYNARFYLRPHYQLEGINASLRLVSELPSVKG | not soluble |
| KLKNYKTSELMIQSSNNYKLESLFITSNIKTRDTMILVHGIGSSYYEMLKVAYRYLDKGYNVLVYNQRNTGNSGGDNYTFGLYERYDLDSLVKFVKNKFPEGRLGVHGFSMGAGTAAMHSEINSKDDKVDFYILDSPYSEMKDAIRMGVLEKRIPDILINYVVTCGDLYNKFKSGFWYSDVKPYESVEKSNVPILFIHGTKDTVCNYQNSKKMYDLVKHDKKDLWLIEGIGHVDGFEHDSTVYFNKIFKFIDSNVLSDKS | not soluble |
| MGQKKYVELSKDIFIFSYLCGGINFTDIANLTQENIVNGRLHYIRQKTGKLIKIGIPQEAMQIIKKYTDESNGYLFPILNVKVHKTALQKQNRIHKIRGKVNDILKTLGKRLGIEANITTYVARHSFASVLKKSGVNIALISEALGHSDLATTQIYLDSFDNEQVDEAMKNLLEHHHHHH | soluble |
| MTPQELNAECHACDKTPPAANTYKGWSGFVGLAAQLNQAWRVGYDITSGYRVPNASEVYFTYNHGSGNWLPNPNLKAERSTTHTLSLQGRSEKGMLDANLYQSNYRNFLSEEQKLTTSGTPGCTEENAYYGICSDPYKEKLDWQMKNIDKARIRGIELTGRLNVDKVASFVPEGWKLFGSLGYAKSKLSGDNSLLSTQPLKVIAGIDYESPSEKWGVFSRLTYLGAKKVKDAQYTVYENKGWGTPLQKKVKDYPWLNKSAYVFDMYGFYKPAKNLTLRAGVYNLFNRKYTTWDSLRGLYSYSTTNAVDRDGKGLDRYRAPGRNYAVSLEWKF | not soluble |
| MSLKVFVTGATGFIGASIARELLKDGCHVRVLARPGSDRRNLDGLDVEVCEGDLCSPESLDRGVKGCEVLYHAAADYRLWTRNPAAMYAANVEGTRHVLDAALRHGVSRVVYTSSVGTLGNPGDGTPGTEATPVTFADMVGDYKKSKFLAEREAETFLARGLPLVIVNPSTPVGPHDVKPTPTGKIIVDFLNRAMPAYLDTGLNIIDVEDCAQGHILAAQHGRIGEKYILGHENLTLRQIFSLLETVTGLAAPKVRLPYLPILAAAYANEALSRITGREPLIPLAGVQMARKFMYFDSSKAVKELGLPQRPAVEALGRAVEWFRANGYVREGHHHHHH | soluble |
| MKIVSKSSPLPLHYQLKMILQEMIENEELLPGDTIPTERELCEIQKISRMTVNKAILSLVSEGILYREQGKGTFVAKKKEKQQLTKLKSFTEEMREKGLNISTKILSFEIKTATKHISTLLELPHKKMKVIEIIRLRLTDNDPSAIETVVLPLYLFSDMTKEVIDGKSLYNTFREKYGYEPTKAKQTIEPIMLTDYEAKFLNQVGNSLALLFRRLTYRKDGVPIEYTKSIYRSEKYKYEVILT | not soluble |
| MPSETPQAEVGPTGCPHRSGPHSAKGSLEKGSPEDKEAKEPLWIRPDAPSRCTWQLGRPASESPHHHTPPAKSPKILPDILKKIGDTPMVRINKIGKKFGLKCELLAKCEFFNAGGSVKDRISLRMIEDAERDGTLKPGDTIIEPTSGNTGIGLALAAAVRGYRCIIVMPEKMSSEKVDVLRALGAEIVRTPTNARFDSPESHVGVAWRLKNEIPNSHILDQYRNASNPLAHYDTTADEILQQCDGKLDMLVASVGTGGTITGIARKLKEKCPGCRIIGVDPEGSILAEPEELNQTEQTTYEVEGIGYDFIPTVLDRTVVDKWFKSNDEEAFTFARMLIAQEGLLCGGSAGSTVAVAVKAAQELQEGQRCVVILPDSVRNYMTKFLSDRWMLQKGFLKEEDLTEKKPWWWHLRVQELGLSAPLTVLPTITCGHTIEILREKGFDQAPVVDEAGVILGMVTLGNMLSSLLAGKVQPSDQVGKVIYKQFKQIRLTDTLGRLSHILEMDHFALVVHEQIQYHSTGKSSQRQMVFGVVTAIDLLNFVAAQERDQK | soluble |
| VTVGDQNGMGPSSGYVTRITNDAREDDMENNMKEVSSMIGNLRNMAIDMGNEIGSQNRQVDRIQQKAESNESRIDEANKKATKLLKN | soluble |
| MNEDVIVDRQYSHGAALTIRAFWAADEESRAAIAKASGLRWVPSSADQPGEQHWPYTEIFQRQMQMELGPDTETRLRIHQPSQLWVRAPSLGEGWLAVPLYPHPLRGQRI | not soluble |
| MGSDKIHHHHHHACKNKTGGPATASSELTDDALMDTVQRRTFLYFWEGAEPNSGLAPERYHVDGVYPQNDANVVTSGGSGFGIMAILAGIDRGYVTREEGLARMERIVSFLEKADRFHGAYPHWWYGDTGKVKPFGQKDNGGDLVETAFLMQGLLAVHQYYINGNEKEKALAARIDQIWKDVDWNWYRNGDQNVLYWHWSPTYGWEMDFPIHGYNECMIMYILAAASPTHGVPAAVYHDGWAQNGAIVSPHKVEGIELHLRYQGTEAGPLFWAQYSFLGLDPVGLKDEYCPSYFHEMRNLTLVNRAYCIRNPKHYKGFGPDCWGLTASYSVDGYAAHSPNEQDDKGVISPTAALSSIVYTPEYSMQVMRHLYNMGDTVFGPFGFYDAFSETDNWYPQRYLAIDQGPIAVMIENYRTGLLWKLFMSHPDVQAGLTKLGFNTNKQDVRQK | not soluble |
| MKLQLALDELTLPEAMVFMDKVVDDVDIIEVGTPFLIREGVNAIKAIKEKYPHKEVLADAKIMDGGHFESQLLFDAGADYVTVLGVTDVLTIQSCIRAAKEAGKQVVVDMICVDDLPARVRLLEEAGADMLAVHTGTDQQAAGRKPIDDLITMLKVRRKARIAVAGGISSQTVKDYALLGPDVVIVGSAITHAADPAGEARKISQVLLQHH | soluble |
